The target of this experiment is HLA-A3 (human). Nature of the experiment: competitive MHC binding assay against a reference peptide.

B1: E255K-B255-263 mutant BCR-ABL peptide (KVYEGVWKK) (peptide)
peptide: KVYEGVWKK
notes: Synthetic 9-mer; also called E255K-B (MUT) peptide; BCR-ABL peptide harboring the E255K mutation
Regarding B1, the IC50 came to 0.017 µM. This lies in the double-digit nanomolar range.

As a reminder, the IC50 is the concentration that inhibits the measured activity by half. A low value points to greater potency in that assay.

The record behind these values is patent US10426824 (Dana-Farber, dated 2019).
